# Laboratory results: patent US20160279215A1, “NOVEL PEPTIDES AND COMBINATION OF PEPTIDES FOR USE IN IMMUNOTHERAPY AGAINST VARIOUS TUMORS” (immatics biotechnologies GmbH, priority 2015, published 2016)
# Target: T1, HLA-A*02:01 (human)
# T1 construct: MHC monomers captured on streptavidin plates; the UV-sensitive peptide is cleaved and exchanged with the test peptide; also called peptide-receptive MHC molecules; MHC class I
# Test: UV ligand-exchange ELISA (anti-b2m); +++ = exchange yield >=50
# Excerpt: (§1) Candidate peptides for T cell based therapies according to the present invention were further tested for their MHC binding capacity (affinity). The individual peptide-MHC complexes were produced by UV-ligand exchange, where a UV-sensitive peptide is cleaved upon UV-irradiation, and exchanged with the peptide of interest as analyzed. Only peptide candidates that can effectively bind and stabilize the peptide-receptive MHC molecules prevent dissociation of the MHC complexes. To determine the yield of the exchange reaction, an ELISA was performed based on the detection of the light chain (β2m) of stabilized MHC complexes. The assay was performed as generally described in Rodenko et al. (Rodenko et al., 2006).
# (§2) 96 well MAXISorp plates (NUNC) were coated over night with 2 ug/ml streptavidin in PBS at room temperature, washed 4× and blocked for 1 h at 37° C. in 2% BSA containing blocking buffer. Refolded HLA-A*02:01/MLA-001 monomers served as standards, covering the range of 15-500 ng/ml. Peptide-MHC monomers of the UV-exchange reaction were diluted 100 fold in blocking buffer. Samples were incubated for 1 h at 37° C., washed four times, incubated with 2 ug/ml HRP conjugated anti-β2m for 1 h at 37° C., washed again and detected with TMB solution that is stopped with […]. Absorption was measured at 450 nm. Candidate peptides that show a high exchange yield (preferably higher than 50%, most preferred higher than 75%) are generally preferred for a generation and production of antibodies or fragments thereof, and/or T cell receptors or fragments thereof, as they show sufficient avidity to the MHC molecules and prevent dissociation of the MHC complexes.
row,Binder,peptide exchange yield [%]
1,FLIENLLAA,50 to 75
2,FLPVSVVYV,50 to 75
3,GLYPVTLVGV,50 to 75
4,GLNGFNVLL,50 to 75
5,FIANLPPELKA,50 to 75
6,ALYGNVQQV,50 to 75
7,KLLPMVIQL,50 to 75
8,GLVDIMVHL,50 to 75
9,ALADGIKSFLL,50 to 75
10,AVFNLVHVV,50 to 75
11,ILAEEPIYIRV,50 to 75
12,SLITGQDLLSV,50 to 75
13,IVTEIISEI,50 to 75
14,HLLGEGAFAQV,50 to 75
15,SLAETIFIV (also called HTR3A-001),50 to 75
16,YLVPGLVAA,50 to 75
17,YLDEVAFML,50 to 75
18,YLFSQGLQGL,50 to 75
19,ALQSFEFRV,50 to 75
20,ALLQALMEL,50 to 75

row,Binder,peptide exchange yield [%]
1,KISDFGLATV,50 to 75
2,LLLPLELSLA,50 to 75
3,SLLEVNEASSV,50 to 75
4,QLMNLIRSV,50 to 75
5,ILGSFELQL,50 to 75
6,ALLDGALQL,50 to 75
7,ILLSVLHQL,50 to 75
8,KLLSLLEEA,50 to 75
9,ALYPKEITL,50 to 75
10,QLIEKNWLL,50 to 75
11,LLDPKTIFL (also called HAVCR1-001),50 to 75
12,KLIDEDEPLFL,50 to 75
13,HLFDKIIKI,50 to 75
14,SLFSNIESV,50 to 75
15,FVQEKIPEL,50 to 75
16,SLVENIHVL,50 to 75
17,KLFEKSTGL,50 to 75
18,FTAEFLEKV,50 to 75
19,VLTGQVHEL,50 to 75
20,TLFGIQLTEA,50 to 75

# Target: T1, HLA-A*02:01
# Test: UV ligand-exchange ELISA (anti-b2m); ++ = exchange yield >=20%
# Excerpt: as §1, §2
row,Binder,peptide exchange yield [%]
1,LLFPSDVQTL,20 to 50
2,GLEERLYTA,20 to 50
3,NMADGQLHQV,20 to 50
4,ALLLRLFTI,20 to 50
5,KMASKVTQV,20 to 50
6,SLIEESEEL,20 to 50
7,DISKRIQSL,20 to 50
8,KLIYKDLVSV,20 to 50
9,NIDINNNEL,20 to 50
10,ALLSSVAEA,20 to 50
11,LLDAAHASI,20 to 50
12,ALYVQAPTV,20 to 50
13,AIIKEIQTV,20 to 50
14,ILHGEVNKV,20 to 50
15,ILQDGQFLV (also called DCAF4L2-001),20 to 50
16,TLDSYLKAV (also called CYP4Z-001),20 to 50
17,VVAAHLAGA,20 to 50
18,FIAAVVEKV,20 to 50
19,FLFLKEVKV,20 to 50
20,QIQGQVSEV,20 to 50
21,TLLEGISRA (also called CABY-001),20 to 50
22,KTASINQNV,20 to 50
23,SLYKSFLQL,20 to 50
24,GIINKLVTV,20 to 50
25,FLDGRPLTL,20 to 50
26,SILTNISEV,20 to 50
